{"source": "paper doi:10.1101/2024.09.24.614852", "target": "tau 2N4R wild type (tau-441) (human, UniProt P10636-8 1-441)", "test": "EMSA"}
{"binder": "24-bp duplex (dsDNA) DNA 1: TCGACACGGAAATGTTGAATACTA DNA 2: TAGTATTCAACATTTCCGTGTCGA", "values": [{"measurement": "binding result", "value": "binds"}]}
